Assay [1] concerns the target T1, ERα (Homo sapiens, UniProt P03372).
T1 sequence (P03372 1-595): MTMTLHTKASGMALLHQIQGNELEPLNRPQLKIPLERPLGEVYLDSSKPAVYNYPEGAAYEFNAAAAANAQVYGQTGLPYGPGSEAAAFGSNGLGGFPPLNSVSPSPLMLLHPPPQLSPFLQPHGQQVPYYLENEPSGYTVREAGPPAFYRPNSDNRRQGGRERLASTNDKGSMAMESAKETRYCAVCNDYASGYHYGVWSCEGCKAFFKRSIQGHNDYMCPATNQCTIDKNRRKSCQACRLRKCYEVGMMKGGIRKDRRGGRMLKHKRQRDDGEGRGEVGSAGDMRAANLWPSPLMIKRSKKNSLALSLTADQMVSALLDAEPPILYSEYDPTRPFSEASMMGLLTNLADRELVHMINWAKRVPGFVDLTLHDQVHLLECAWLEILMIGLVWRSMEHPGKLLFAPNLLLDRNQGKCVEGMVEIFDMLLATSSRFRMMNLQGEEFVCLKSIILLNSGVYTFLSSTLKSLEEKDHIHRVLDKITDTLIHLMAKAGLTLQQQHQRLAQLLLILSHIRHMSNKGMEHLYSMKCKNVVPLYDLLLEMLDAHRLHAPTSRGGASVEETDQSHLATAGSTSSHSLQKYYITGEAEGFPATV
The experiment in a line: Transrepression of IL-1β induced NF-κB responsive promoter-reporters, U-2 OS transiently transfected with ERα. It is filed as cell-based. Particulars: ER alpha transfected, IL-1 induced. Also noted: expressed in transfected cells. From the text: pKCRE-ERα, pKCRE-ERβ and pNGV1-GR contain the human wild-type estrogen receptor α (ERα), ERβ or GR respectively under control of the SV40 promoter. The pCMV4-c-Rel expression vector was produced by cloning of the coding region of c-Rel into the pCMV4 vector (Andersson et al., 1989). pGL3-ELAM, pGL3-VCAM and pGL3-ICAM have been constructed based on PCR using the sequences as outlined in appendix 1. The luciferase reporter plasmid 3*NF-κB-TK was constructed by inserting three repeats of the NF-κB binding site from the ICAM promoter (van de Stolpe et al.; J. Biol Chem. 269: 6185-6192. 1994) in front of the herpes simplex virus thymidine kinase (HSV-TK) promoter. The TK promoter was cloned into the Bgl II-site of pGL3-basic (Promega). The triple repeat of NF-κB binding sites was constructed by annealing the oligonucleotide primers 5′-[…]-3′ and 5′-[…]-3′ followed by PRC amplification and subcloning in the pCR™2.1 vector. The insert was excised using HindIII, blunted with Klenow DNA polymerase and ligated into the SmaI site of pGL3-tk-luc. 4xERE-TATA Luc (plasmid nr. 460) contains four repeats of an estrogen responsive element followed by a TATA box and a luciferase gene. The pSV-β-Galactosidase (pSVβ) control vector (Promega) served as a positive control vector for monitoring transfection efficiencies of mammalian cells. The SV40 early promoter and enhancer drive transcription of the LacZ gene which encodes the β-Galactosidase enzyme. The yeast 2-hybrid constructs pGAD424-ERα, pGAD424-ERαdAB and pGAD424-ERβ were constructed by cloning respectively the human ERα, the ERα without the AB domain and the human ERβ cDNA in pGAD424. pGAD424-ERα LBD was constructed by cloning the LBD of ERα, obtained by PCR, in the EcoRI and SalI sites of pGAD424 vector. pGBT9-c-Rel was constructed by cloning the c-Rel fragment, obtained by PCR on pCMV4-c-Rel in the EcoRI and BamHI sites of pGBT9. The p65/RelA cDNA was obtained by PCR on the pCMV4-p65.
For transient transfections, cells were seeded in 6-well plates (2.10^5 cells/well). After two or three days the cells were transfected with reporter, expression vectors and β-galactosidase control vector. Two different experimental settings were used. For testing transrepression of IL-1β induced promoter activity, cells were transfected with 1 μg reporter construct, 1 μg expression vector (containing either ERα, ERβ or GR), and 0.25 μg of β-galactosidase control plasmid.

The target of assay [2] is T1, ERα. The experiment in a line: Stably transfected ECV304/T24-ERα-ELAM-HMG and -VCAM3 clones, luciferase activity. Conditions: stable ECV304/T24-ERα clone, IL1 induced.
The target in assay [3] is T1, ERα. The experiment in a line: NF-κB-responsive reporters in ECV304-ERα cells, IL-1 induced. It is filed as cell-based. Further details: expressed in transfected cells. Particulars: ECV304-ERα cells (A). From the text:
This example describes an assay, based on the E-selectin or VCAM promoter in combination with ERα in the T24/ECV cell line. Note that for the ER/NF-κB transrepression assay the ECV304 cell line was used, which was believed to be the only endothelial cell line available that was suitable for producing stable ERα expressing clones. At a later stage ATCC reported that the ECV304 cells were no endothelial cells but, instead, were T24 bladder carcinoma cells. In order to enhance the cytokine induction and amount of repression by estrogens, multiple copies of NF-κB responsive regions of the E-Selectin and VCAM promoters were used to construct new reporters named ELAM1a, ELAM2, ELAM-HMG, VCAM1-2, VCAM2, and VCAM3 (for reporter details see appendix 1).
ECV304-ERα cells stably express ERα and endogenous c-Rel, whereas COS cells were transiently transfected with ERα, and, where indicated, c-Rel. Both cell types were co-transfected with the indicated E-selectin (ELAM) or VCAM promoter derived reporters.
Human osteosarcoma U-2 OS (HTB-96), monkey kidney COS-1 (CRL-1650) and human ECV304 (CRL-1998) cells have been obtained from ATCC (American Type Culture collection). ECV304 cells were sold by ATCC as human endothelial cells, however at a later stage ATCC informed us that this cell line was in fact the human bladder epithelial carcinoma cell line T24. Therefore, these cells are called T24/ECV in this report. ECV304/T24(-ERα), U-2 OS and COS-7 cells were grown in a 1:1 mixture of phenol red free Dulbecco's modified medium (DMEM) and Ham's F12 medium (=M505), supplemented with 10% fetal calf serum (FCS). Experiments were performed in M505+10% FCTS (fetal calf serum treated with dextran-coated charcoal to deplete serum from steroid activity).
The six NF-κB responsive reporters pHGL3-ELAM 1a, pHGL3-ELAM 2, pHGL3-ELAM HMG, pHGL3-VCAM 1-2, pHGL3-VCAM 2 and pHGL3-VCAM 3 (plasmid nr. 1921-1926 respectively) were constructed by ligating annealed primers in the Kpn I and Sac I sites of pHGL3-TATA. The primers were based on the NF-κB-RE sequences in the ELAM and the VCAM promoter (see Appendix 1). Several copies of the NF-κB-RE's were cloned in order the gain a higher absolute luciferase signal. The ELAM HMG construct contains a double repeat, while the other constructs contain three NF-κB -RE's. For primer and reporter sequences, see appendix 1.
For transient transfections, cells were seeded in 6-well plates (2.10^5 cells/well). After two or three days the cells were transfected with reporter, expression vectors and β-galactosidase control vector. Two different experimental settings were used. For testing transrepression of IL-1β induced promoter activity, cells were transfected with 1 μg reporter construct, 1 μg expression vector (containing either ERα, ERβ or GR), and 0.25 μg of β-galactosidase control plasmid. For testing transrepression in combination with c-Rel or ReLA overexpression, cells were transfected with 1 μg reporter construct, 1 μg expression vector (containing either ERα, ERβ or GR) and 0.1 or 1.0 μg expression vector containing c-Rel or RelA and 0.25 μg of β-galactosidase control vector. Equivalent amounts of DNA were obtained by adding the appropriate expression vector that lacks an insert. Transient transfection was performed using lipofectin reagent (Life Technologies). […] The transfected cells were incubated overnight with test compounds prior to cell lysis. Measurement of luciferase and P-galactosidase activity were performed using respectively the luciferase assay system (Promega) and Galacto-light plus (Tropix) according to the manufacturers' protocols and measured on the Victor 1420 multilabel counter, Wallac.

Consider “IL-1: cytokine used to induce NF-κB responsive reporter activity”, for which, in the assay with ERα [1], the “luciferase activity, 3*NFkB-reporter” value amounted to 1836839; the “luciferase activity, ELAM+ reporter” value was 99757; the “luciferase activity, ICAM reporter” value came to 908172; the “luciferase activity, VCAM reporter” value is 30296. In the assay with ERα [2], the “luciferase activity, ELAM-HMG clone 2B8” value worked out at 8410; the “luciferase activity, ELAM-HMG clone 2F4” value turned out to be 1566; the “luciferase activity, VCAM3 clone 3A10” value is reported as 3907; the “luciferase activity, VCAM3 clone 4B6” value is 2122. Moreover, in the assay with ERα [3], the “luciferase activity, ELAM1a reporter” value stood at 1818 cps; the “luciferase activity, ELAM2 reporter” value is on record as 39383 cps; the “luciferase activity, ELAM− reporter” value is reported as 160167 cps; the “luciferase activity, VCAM1-2 reporter” value is 3741 cps. In the assay with ERα [3], the “luciferase activity, VCAM2 reporter” value was 19464 cps; the “luciferase activity, VCAM3 reporter” value is on record as 22767 cps; the “luciferase activity, VCAM reporter” value was found to be 3099 cps.
